Results on 4 molecules are retold here after patent US20260001928A1 (CORTERIA PHARMACEUTICALS, priority 2022, published 2026).

*1 amine or outer side, *2 acyl side, *3 side chain or, on linkers, in order; H or OH if unused. Side-chain parts run from the residue outwards. [ ]: non-standard residue; d: D form. The star is where a group is joined. C20 diacid = O=C(O)CCCCCCCCCCCCCCCCCCC(=O)*; γGlu = O=C(O)[C@H](CCC(=O)[*:2])N[*:1]; Lauroyl = CCCCCCCCCCCC(=O)*; Decanoyl = CCCCCCCCCC(=O)*; Pentanoyl = CCCCC(=O)*; Aib = CC(C)(N)C(=O)O

The target of assay [1] is T1, CRF1R receptor (UniProt P34998 24-415, limits assumed).
T1 sequence (looked up): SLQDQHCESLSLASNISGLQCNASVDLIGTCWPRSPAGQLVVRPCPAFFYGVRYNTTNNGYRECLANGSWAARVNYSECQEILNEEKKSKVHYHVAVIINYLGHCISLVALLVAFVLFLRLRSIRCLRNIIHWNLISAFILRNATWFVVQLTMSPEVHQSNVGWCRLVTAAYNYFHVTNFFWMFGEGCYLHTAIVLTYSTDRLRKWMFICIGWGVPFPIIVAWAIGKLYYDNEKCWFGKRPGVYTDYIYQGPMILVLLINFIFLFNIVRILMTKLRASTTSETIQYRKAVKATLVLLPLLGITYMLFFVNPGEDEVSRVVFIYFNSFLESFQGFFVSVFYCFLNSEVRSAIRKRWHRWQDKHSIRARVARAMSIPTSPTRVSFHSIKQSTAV
Kind of assay: cell-based or functional assay.

The target in assay [2] is human corticotropin-releasing factor 2a (CRF2a receptor) (human), Q13324. Briefly: cell-based or functional assay.
Chain of human corticotropin-releasing factor 2a (CRF2a receptor) (human), Q13324 (Q13324 20-411): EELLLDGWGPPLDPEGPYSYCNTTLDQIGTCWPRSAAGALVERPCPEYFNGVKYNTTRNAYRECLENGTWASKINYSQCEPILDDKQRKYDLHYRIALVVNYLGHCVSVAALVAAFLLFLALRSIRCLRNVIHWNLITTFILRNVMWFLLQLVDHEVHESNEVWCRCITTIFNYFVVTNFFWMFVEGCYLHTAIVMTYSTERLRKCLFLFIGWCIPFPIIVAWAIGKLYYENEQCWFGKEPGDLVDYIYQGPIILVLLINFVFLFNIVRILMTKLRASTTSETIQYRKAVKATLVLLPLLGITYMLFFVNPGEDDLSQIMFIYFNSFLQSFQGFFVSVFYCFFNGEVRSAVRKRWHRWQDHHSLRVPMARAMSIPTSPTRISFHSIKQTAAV

B1: SEQ ID NO 224 (peptide)
peptide: Lauroyl-VLSLD[dV]PIKLK([γGlu-C20 diacid])KILLEQEKQKKQREQAETN[Aib]QILAQV-NH2
SMILES: CCCCCCCCCCCC(=O)N[C@H](C(=O)N[C@@H](CC(C)C)C(=O)N[C@@H](CO)C(=O)N[C@@H](CC(C)C)C(=O)N[C@@H](CC(=O)O)C(=O)N[C@@H](C(=O)N1CCC[C@H]1C(=O)N[C@H](C(=O)N[C@@H](CCCCN)C(=O)N[C@@H](CC(C)C)C(=O)N[C@@H](CCCCNC(=O)CC[C@H](NC(=O)CCCCCCCCCCCCCCCCCCC(=O)O)C(=O)O)C(=O)N[C@@H](CCCCN)C(=O)N[C@H](C(=O)N[C@@H](CC(C)C)C(=O)N[C@@H](CC(C)C)C(=O)N[C@@H](CCC(=O)O)C(=O)N[C@@H](CCC(N)=O)C(=O)N[C@@H](CCC(=O)O)C(=O)N[C@@H](CCCCN)C(=O)N[C@@H](CCC(N)=O)C(=O)N[C@@H](CCCCN)C(=O)N[C@@H](CCCCN)C(=O)N[C@@H](CCC(N)=O)C(=O)N[C@@H](CCCNC(=N)N)C(=O)N[C@@H](CCC(=O)O)C(=O)N[C@@H](CCC(N)=O)C(=O)N[C@@H](C)C(=O)N[C@@H](CCC(=O)O)C(=O)N[C@H](C(=O)N[C@@H](CC(N)=O)C(=O)NC(C)(C)C(=O)N[C@@H](CCC(N)=O)C(=O)N[C@H](C(=O)N[C@@H](CC(C)C)C(=O)N[C@@H](C)C(=O)N[C@@H](CCC(N)=O)C(=O)N[C@H](C(N)=O)C(C)C)[C@@H](C)CC)[C@@H](C)O)[C@@H](C)CC)[C@@H](C)CC)C(C)C)C(C)C
As to B1, in assay [1], a half-maximal effect (EC50) was put at 39.5 nM and the “Emax (% I)” value was determined as 66%. In assay [2], the EC50 [nM] (cAMP) worked out at 0.07 nM.

B2: SEQ ID NO 221 (peptide)
peptide: Pentanoyl-VLSLD[dV]PIKLK([γGlu-C20 diacid])KILLEQEAQKKQREQAETN[Aib]QILAQV-NH2
SMILES: CCCCC(=O)N[C@H](C(=O)N[C@@H](CC(C)C)C(=O)N[C@@H](CO)C(=O)N[C@@H](CC(C)C)C(=O)N[C@@H](CC(=O)O)C(=O)N[C@@H](C(=O)N1CCC[C@H]1C(=O)N[C@H](C(=O)N[C@@H](CCCCN)C(=O)N[C@@H](CC(C)C)C(=O)N[C@@H](CCCCNC(=O)CC[C@H](NC(=O)CCCCCCCCCCCCCCCCCCC(=O)O)C(=O)O)C(=O)N[C@@H](CCCCN)C(=O)N[C@H](C(=O)N[C@@H](CC(C)C)C(=O)N[C@@H](CC(C)C)C(=O)N[C@@H](CCC(=O)O)C(=O)N[C@@H](CCC(N)=O)C(=O)N[C@@H](CCC(=O)O)C(=O)N[C@@H](C)C(=O)N[C@@H](CCC(N)=O)C(=O)N[C@@H](CCCCN)C(=O)N[C@@H](CCCCN)C(=O)N[C@@H](CCC(N)=O)C(=O)N[C@@H](CCCNC(=N)N)C(=O)N[C@@H](CCC(=O)O)C(=O)N[C@@H](CCC(N)=O)C(=O)N[C@@H](C)C(=O)N[C@@H](CCC(=O)O)C(=O)N[C@H](C(=O)N[C@@H](CC(N)=O)C(=O)NC(C)(C)C(=O)N[C@@H](CCC(N)=O)C(=O)N[C@H](C(=O)N[C@@H](CC(C)C)C(=O)N[C@@H](C)C(=O)N[C@@H](CCC(N)=O)C(=O)N[C@H](C(N)=O)C(C)C)[C@@H](C)CC)[C@@H](C)O)[C@@H](C)CC)[C@@H](C)CC)C(C)C)C(C)C
Consider B2, for which, in assay [1], the response was half-maximal at 22.5 nM (EC50) and the “Emax (% I)” value came to 79%. In assay [2], this molecule yielded an EC50 [nM] (cAMP) of 0.18 nM.

B3: SEQ ID NO 222 (peptide)
peptide: Pentanoyl-VLSLD[dV]PIKLK([γGlu-C20 diacid])KILLEQEKQKAQREQAETN[Aib]QILAQV-NH2
SMILES: CCCCC(=O)N[C@H](C(=O)N[C@@H](CC(C)C)C(=O)N[C@@H](CO)C(=O)N[C@@H](CC(C)C)C(=O)N[C@@H](CC(=O)O)C(=O)N[C@@H](C(=O)N1CCC[C@H]1C(=O)N[C@H](C(=O)N[C@@H](CCCCN)C(=O)N[C@@H](CC(C)C)C(=O)N[C@@H](CCCCNC(=O)CC[C@H](NC(=O)CCCCCCCCCCCCCCCCCCC(=O)O)C(=O)O)C(=O)N[C@@H](CCCCN)C(=O)N[C@H](C(=O)N[C@@H](CC(C)C)C(=O)N[C@@H](CC(C)C)C(=O)N[C@@H](CCC(=O)O)C(=O)N[C@@H](CCC(N)=O)C(=O)N[C@@H](CCC(=O)O)C(=O)N[C@@H](CCCCN)C(=O)N[C@@H](CCC(N)=O)C(=O)N[C@@H](CCCCN)C(=O)N[C@@H](C)C(=O)N[C@@H](CCC(N)=O)C(=O)N[C@@H](CCCNC(=N)N)C(=O)N[C@@H](CCC(=O)O)C(=O)N[C@@H](CCC(N)=O)C(=O)N[C@@H](C)C(=O)N[C@@H](CCC(=O)O)C(=O)N[C@H](C(=O)N[C@@H](CC(N)=O)C(=O)NC(C)(C)C(=O)N[C@@H](CCC(N)=O)C(=O)N[C@H](C(=O)N[C@@H](CC(C)C)C(=O)N[C@@H](C)C(=O)N[C@@H](CCC(N)=O)C(=O)N[C@H](C(N)=O)C(C)C)[C@@H](C)CC)[C@@H](C)O)[C@@H](C)CC)[C@@H](C)CC)C(C)C)C(C)C
As for B3, in assay [1], the “EC50” value was 196 nM and the “Emax (% I)” value was determined as 50%. The molecule also showed an EC50 [nM] (cAMP) in assay [2] of 0.14 nM.

B4: SEQ ID NO 223 (peptide)
peptide: Decanoyl-VLSLD[dV]PIKLK([γGlu-C20 diacid])KILLEQEKQKKQREQAETN[Aib]QILAQV-NH2
SMILES: CCCCCCCCCC(=O)N[C@H](C(=O)N[C@@H](CC(C)C)C(=O)N[C@@H](CO)C(=O)N[C@@H](CC(C)C)C(=O)N[C@@H](CC(=O)O)C(=O)N[C@@H](C(=O)N1CCC[C@H]1C(=O)N[C@H](C(=O)N[C@@H](CCCCN)C(=O)N[C@@H](CC(C)C)C(=O)N[C@@H](CCCCNC(=O)CC[C@H](NC(=O)CCCCCCCCCCCCCCCCCCC(=O)O)C(=O)O)C(=O)N[C@@H](CCCCN)C(=O)N[C@H](C(=O)N[C@@H](CC(C)C)C(=O)N[C@@H](CC(C)C)C(=O)N[C@@H](CCC(=O)O)C(=O)N[C@@H](CCC(N)=O)C(=O)N[C@@H](CCC(=O)O)C(=O)N[C@@H](CCCCN)C(=O)N[C@@H](CCC(N)=O)C(=O)N[C@@H](CCCCN)C(=O)N[C@@H](CCCCN)C(=O)N[C@@H](CCC(N)=O)C(=O)N[C@@H](CCCNC(=N)N)C(=O)N[C@@H](CCC(=O)O)C(=O)N[C@@H](CCC(N)=O)C(=O)N[C@@H](C)C(=O)N[C@@H](CCC(=O)O)C(=O)N[C@H](C(=O)N[C@@H](CC(N)=O)C(=O)NC(C)(C)C(=O)N[C@@H](CCC(N)=O)C(=O)N[C@H](C(=O)N[C@@H](CC(C)C)C(=O)N[C@@H](C)C(=O)N[C@@H](CCC(N)=O)C(=O)N[C@H](C(N)=O)C(C)C)[C@@H](C)CC)[C@@H](C)O)[C@@H](C)CC)[C@@H](C)CC)C(C)C)C(C)C
As to B4, in assay [1], the half-maximal effective concentration (EC50) was 152 nM and the “Emax (% I)” value was found to be 58%. This molecule also yielded an EC50 [nM] (cAMP) in assay [2] of 0.08 nM.

One may read the EC50 as the concentration that produces a half-maximal response. A higher EC50 goes with a less potent agent.
